# B1: Acyl carrier protein (Escherichia coli (strain K12)), P0A6A8 (parent)
# chain: MSTIEERVKKIIGEQLGVKQEEVTNNASFVEDLGADSLDTVELVMALEEEFDTEIPDEEAEKITTVQAAIDYINGHQA
# partner: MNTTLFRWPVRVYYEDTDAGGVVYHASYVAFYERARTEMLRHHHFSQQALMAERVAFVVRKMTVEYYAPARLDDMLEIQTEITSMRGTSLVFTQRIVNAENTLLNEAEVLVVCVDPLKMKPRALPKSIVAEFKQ
# Variants of: B1
# Conditions: with ybgc_ecoli ybgC
row,Variant,effect of a mutation on the interaction
1,MSTIEERVKKIIGEQLGVKQEEVTNNASFVEDLGADCLDTVELVMALEEEFDTEIPDEEAEKITTVQAAIDYINGHQA [S37C],disrupting interaction

# From IntAct's records for PubMed 16294310
